The target in one assay is T1, TNKS2 ARC4 (Homo sapiens, UniProt Q9H2K2).
T1 construct: GST (cleaved yes); made in house; host or cells: E. coli C41(DE3)
T1 sequence (Q9H2K2 488-649): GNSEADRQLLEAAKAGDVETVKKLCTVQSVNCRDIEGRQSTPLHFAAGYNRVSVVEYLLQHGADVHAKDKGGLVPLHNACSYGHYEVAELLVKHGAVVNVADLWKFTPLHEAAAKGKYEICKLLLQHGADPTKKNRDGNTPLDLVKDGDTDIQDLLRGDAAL
Briefly: Direct fluorescence polarization, TNKS2 ARC4. In kind it is binding. To be noted: TAMRA-labeled peptides, n.d. = not detectable; for Kd: read-out: Kd TNKS2 ARC4 (Direct FP). How it is done:
Fluorescence polarization (FP) assays were performed in 96-well half area black microplates (Corning) on a CLARIOstar microplate reader (BMG labtech) using excitation filter 540–20 nm, dichroic mirror LP 566 nm, and emission filter 590–20 nm. All peptides were dissolved in water as stock solutions. For direct FP assays, the stock concentrations of the TAMRA-labeled peptides were determined based on the 5-TAMRA absorbance at 556 nm (extinction coefficient ε = 89,000 M^–1 cm^–1) measured on a NanoDrop 2000 (Thermo Scientific) and verified by amino acid analysis (Department of Biochemistry, University of Cambridge). TNKS2 ARC4 (488–649) or TNKS1 ARC2–3 (315–662) was diluted 2-fold serially in the assay buffer (50 mM HEPES pH 7.5, 300 mM NaCl, 2 mM DTT, 0.05% (v/v) Tween 20) for a 12-point titration curve in triplicate. The diluted TAMRA-labeled peptide (20 nM, 50 μL) was mixed with the serially diluted TNKS2 ARC4 or TNKS1 ARC2–3 (40–0 μM, 50 μL) in each well and incubated for 30 min at 25 °C before the measurement. Data were analyzed on GraphPad Prism 5.0, and the dissociation constant, Kd, was determined using the following equation assuming the ratio between the concentration of the bound and that of the total TAMRA-labeled peptide is proportional to the fluorescence polarization [drawing 1] where FP is the fluorescence polarization, B is the minimum FP, T is the maximum FP, L0 is the total concentration of TAMRA-labeled peptide, P0 is the total concentration of protein, and Kd is the dissociation constant.
(In general: Polarisation of emitted light reports the rotation of a fluorescent probe.)

For assay [1], the target named is T2, human tankyrase 2 ankyrin repeat cluster 4 (TNKS2 ARC4, residues 488-649) (human, UniProt Q9H2K2 488-649).
T2 sequence (looked up): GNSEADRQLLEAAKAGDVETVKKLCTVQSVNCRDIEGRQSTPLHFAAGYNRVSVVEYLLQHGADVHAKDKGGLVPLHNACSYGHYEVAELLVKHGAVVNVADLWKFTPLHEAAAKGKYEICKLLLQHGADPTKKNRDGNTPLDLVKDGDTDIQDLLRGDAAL
Put plainly: ITC; TNKS2 ARC4 (160-280 uM) or TNKS1 ARC2-3 (60-150 uM) titrated into the cell with unlabeled peptide (5-15 uM) or Axin1 fragment (8-12 uM); PBS, 0.5 mM TCEP; 25 C; one-site model; stoichiometry = TNKS per peptide or Axin1. As to conditions: both partners purified. Background: ITC needs no label: the signal is the heat of the interaction.

Assay [2] addresses T3, human tankyrase 1 ankyrin repeat clusters 2-3 (TNKS1 ARC2-3, residues 315-662) (human, UniProt O95271 315-662).
T3 sequence (looked up): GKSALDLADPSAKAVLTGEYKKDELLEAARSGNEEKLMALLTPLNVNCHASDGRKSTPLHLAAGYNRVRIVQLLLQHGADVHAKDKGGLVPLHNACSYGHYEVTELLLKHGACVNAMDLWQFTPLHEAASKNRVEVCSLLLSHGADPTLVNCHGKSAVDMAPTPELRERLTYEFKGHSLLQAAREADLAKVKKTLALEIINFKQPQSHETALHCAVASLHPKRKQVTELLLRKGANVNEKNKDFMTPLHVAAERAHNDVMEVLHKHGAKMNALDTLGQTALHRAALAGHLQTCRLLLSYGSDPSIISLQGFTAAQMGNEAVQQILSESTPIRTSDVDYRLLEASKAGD
The description is as above. As to conditions: both partners purified.

Assay [3] addresses T2, human tankyrase 2 ankyrin repeat …. Put plainly: fluorescence polarisation; direct: TNKS2 ARC4 or TNKS1 ARC2-3 diluted 2-fold serially (40-0 uM, 50 uL) and mixed with TAMRA-labeled peptide (20 nM, 50 uL); 50 mM HEPES pH 7.5, 300 mM NaCl, 2 mM DTT, 0.05% Tween 20; 30 min, 25 C. As to conditions: both partners purified.
In the next assay the target is T4, TNKS2 ARC4 (488–649) (human, UniProt Q9H2K2 488-649).
T4 chain: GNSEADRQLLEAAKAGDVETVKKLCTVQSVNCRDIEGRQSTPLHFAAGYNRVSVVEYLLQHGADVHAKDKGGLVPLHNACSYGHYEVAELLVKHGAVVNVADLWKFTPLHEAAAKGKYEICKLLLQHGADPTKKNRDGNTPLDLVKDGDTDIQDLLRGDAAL
Briefly: FP.

In assay [4] the target is T3, human tankyrase 1 ankyrin repeat …. Briefly: fluorescence polarisation; direct: TNKS2 ARC4 or TNKS1 ARC2-3 diluted 2-fold serially (40-0 uM, 50 uL) and mixed with TAMRA-labeled peptide (20 nM, 50 uL); 50 mM HEPES pH 7.5, 300 mM NaCl, 2 mM DTT, 0.05% Tween 20; 30 min, 25 C. As to conditions: both partners purified.

Bridge positions count the residues as written; N and C are the ends. Square brackets hold non-standard residues; d marks the D form. Ends that are not written are not given here. * marks the point of attachment. 5‑TAMRA = CN(C)c1ccc2c(-c3ccc(C(=O)*)cc3C(=O)[O-])c3ccc(N(C)C)cc3[o+]c2c1; n3 = azido unnatural amino acid, 3 CH2 in side chain; Orn(N3) = [N-]=[N+]=NCCC[C@H](N)C(=O)O; Dap(N3) = [N-]=[N+]=NC[C@H](N)C(=O)O; Aha = [N-]=[N+]=NCC[C@H](N)C(=O)O; m3N = not defined here; m3c = not defined here; m3 = not defined here; m4 = not defined here; m5 = not defined here; Ahx = NCCCCCC(=O)O

In the case of “cp4n1m3: non-binding cross-linked peptide, REXGDGXE, UAA side chains n=1, linker m3 (RE[Dap(N3)]GDG[Dap(N3)]E; linker 3-7 via m3 (inferred); reading uncertain)”, in the assay with TNKS2 ARC4, the “Kd TNKS2 ARC4 (Direct FP)” value is listed as “nondetectable”. By Kd is commonly meant the equilibrium constant for the complex coming apart. As for `CN(C)c1ccc2c(c1)Oc1cc(N(C)C)ccc1C21OC(=O)c2cc(C(=O)NCCCCCC(=O)N[C@@H](CCCNC(=N)N)C(=O)N[C@@H](CCC(=O)O)C(=O)N[C@H]3CCCn4cc(nn4)CCCc4cn(nn4)CCC[C@@H](C(=O)N[C@@H](CCC(=O)O)C(N)=O)NC(=O)CNC(=O)[C@H](CC(=O)O)NC(=O)CNC3=O)ccc21` [T-cp4n3m3], the dissociation constant Kd on TNKS2 ARC4 amounted to 2600 ± 100 nM. For `CN(C)c1ccc2c(c1)Oc1cc(N(C)C)ccc1C21OC(=O)c2cc(C(=O)NCCCCCC(=O)N[C@@H](CCCNC(=N)N)C(=O)N[C@@H](CCC(=O)O)C(=O)N[C@H]3CCn4cc(nn4)CCCCc4cn(nn4)CC[C@@H](C(=O)N[C@@H](CCC(=O)O)C(N)=O)NC(=O)CNC(=O)[C@H](CC(=O)O)NC(=O)CNC3=O)ccc21` [T-cp4n2m4], at TNKS2 ARC4, the Kd was found to be 800 ± 20 nM. `CN(C)c1ccc2c(c1)Oc1cc(N(C)C)ccc1C21OC(=O)c2cc(C(=O)NCCCCCC(=O)N[C@@H](CCCNC(=N)N)C(=O)N[C@@H](CCC(=O)O)C(=O)N[C@H]3CCn4cc(nn4)-c4cc(C(=O)N[C@@H](CCCNC(=N)N)C(=O)N[C@@H](CCCNC(=N)N)C(=O)N[C@@H](CCCNC(=N)N)C(=O)N[C@@H](CCCNC(=N)N)C(=O)N[C@@H](CCCNC(=N)N)C(=O)N[C@@H](CCCNC(=N)N)C(=O)N[C@@H](CCCNC(=N)N)C(=O)N[C@@H](CCCNC(=N)N)C(=O)N[C@@H](CCCNC(=N)N)C(N)=O)cc(c4)-c4cn(nn4)CC[C@@H](C(=O)N[C@@H](CCC(=O)O)C(N)=O)NC(=O)CNC(=O)[C@H](CC(=O)O)NC(=O)CNC3=O)ccc21` [T-cp4n2m3c-R9]: on TNKS2 ARC4, the dissociation constant (Kd) came to 740 ± 30 nM.

On to `CN(C)c1ccc2c(c1)Oc1cc(N(C)C)ccc1C21OC(=O)c2cc(C(=O)NCCCCCC(=O)N[C@@H](CCCNC(=N)N)C(=O)N[C@@H](CCC(=O)O)C(=O)N[C@H]3CCn4cc(nn4)CCCc4cn(nn4)CCC[C@@H](C(=O)N[C@@H](CCC(=O)O)C(N)=O)NC(=O)CNC(=O)[C@H](CC(=O)O)NC(=O)CNC3=O)ccc21` [T-cp4n23m3], for which the dissociation constant (Kd) on TNKS2 ARC4 was found to be 1100 ± 40 nM. Regarding `CC(C)C[C@H](NC(=O)c1cc2cc(c1)-c1cn(nn1)CC[C@H](NC(=O)[C@H](CCC(=O)O)NC(=O)[C@H](CCCNC(=N)N)NC(=O)CCCCCNC(=O)c1ccc3c(c1)C(=O)OC31c3ccc(N(C)C)cc3Oc3cc(N(C)C)ccc31)C(=O)NCC(=O)N[C@@H](CC(=O)O)C(=O)NCC(=O)N[C@H](C(=O)N[C@@H](CCC(=O)O)C(N)=O)CCn1cc-2nn1)C(=O)N[C@@H](CS)C(=O)N[C@@H](CC(C)C)C(=O)N[C@@H](CCCNC(=N)N)C(N)=O` [T-cp4n2m3c-LCLR], the dissociation constant (Kd) at TNKS2 ARC4 was 730 ± 20 nM. Turning to `CN(C)c1ccc2c(c1)Oc1cc(N(C)C)ccc1C21OC(=O)c2cc(C(=O)NCCCCCC(=O)N[C@@H](CCCNC(=N)N)C(=O)N[C@@H](CCC(=O)O)C(=O)N[C@H]3CCn4cc(nn4)-c4cc(C(=O)O)cc(c4)-c4cn(nn4)CC[C@@H](C(=O)N[C@@H](CCC(=O)O)C(N)=O)NC(=O)CNC(=O)[C@H](CC(=O)O)NC(=O)CNC3=O)ccc21` [T-cp4n2m3c], the Kd at TNKS2 ARC4 is 440 ± 10 nM. Still for that read-out and setting: as for `CN(C)c1ccc2c(c1)Oc1cc(N(C)C)ccc1C21OC(=O)c2cc(C(=O)NCCCCCC(=O)N[C@@H](CCCNC(=N)N)C(=O)N[C@@H](CCC(=O)O)C(=O)N[C@H]3CCn4cc(nn4)CN(CC(=O)O)Cc4cn(nn4)CC[C@@H](C(=O)N[C@@H](CCC(=O)O)C(N)=O)NC(=O)CNC(=O)[C@H](CC(=O)O)NC(=O)CNC3=O)ccc21` [T-cp4n2m3N], the figure is 1200 ± 20 nM.

B1: cp4n2m3 (unlabeled) (peptide)
chain: Ac-RE[Aha]GDG[Aha]E-NH2
modifications: triazole 3-7 via m3; reading uncertain
As a reminder, the stoichiometry N is a count of units in the complex or per binding partner. Take B1: in assay [1], the Kd turned out to be 890 ± 40 nM and the “stoichiometry N” value came out at 0.9 ± 0.005. In addition, in assay [2], the Kd came to 260 ± 30 nM and the “stoichiometry N” value worked out at 0.9 ± 0.01.

B2: T-cp4n3m4 (peptide)
chain: {5‑TAMRA-Ahx}-RE[Orn(N3)]GDG[Orn(N3)]E
modifications: bridge 3-7; not fully specified (bridges)
With B2, the equilibrium dissociation constant (Kd) in assay [3] amounted to 1100 ± 30 nM; with TNKS2 ARC4 (488–649) it was 1110 nM.

B3: T-cp4n2m4 (peptide)
chain: {5‑TAMRA-Ahx}-RE[Aha]GDG[Aha]E
modifications: triazole 3-7 via m4; reading uncertain
Regarding B3, the Kd in assay [4] was found to be 290 ± 8 nM; with TNKS2 ARC4 (488–649) it was 810 nM.

B4: T-cp4n2m5 (peptide)
chain: {5‑TAMRA-Ahx}-RE[Aha]GDG[Aha]E
modifications: triazole 3-7 via m5; reading uncertain
Turning to B4, the dissociation constant (Kd) worked out at 1300 ± 40 nM in assay [3] and 1290 nM in the assay with TNKS2 ARC4 (488–649).

B5: T-cp4n2m3N (peptide)
chain: {5‑TAMRA-Ahx}-RE[Aha]GDG[Aha]E
modifications: triazole 3-7 via m3N; reading uncertain
For B5, in assay [4], the Kd was 280 ± 5 nM.

B6: T-cp4n2m3c (peptide)
chain: {5‑TAMRA-Ahx}-RE[Aha]GDG[Aha]E-NH2
modifications: triazole 3-7 via m3c; reading uncertain
For B6, the Kd in assay [4] amounted to 320 ± 3 nM; in assay [3], 400 ± 10 nM.

B7: pep1 (unlabeled linear consensus peptide Ac-REAGDGEE) (peptide)
peptide: Ac-REAGDGEE-NH2
Take B7: in assay [1], binding was characterised by a dissociation constant (Kd) of 1180 ± 40 nM and the “stoichiometry N” value was 1 ± 0.004. Moreover, the “stoichiometry N” value in assay [2] was 0.9 ± 0.01.

B8: T-cp4n3m5 (peptide)
chain: {5‑TAMRA-Ahx}-RE[n3]GDG[n3]E
modifications: bridge 3-7; not fully specified (bridges)
As for B8, the dissociation constant Kd in assay [3] was 1900 ± 50 nM; with TNKS2 ARC4 (488–649), 1910 nM.

B9: cp4n2m3c (unlabeled) (peptide)
chain: Ac-RE[Aha]GDG[Aha]E-NH2
modifications: bridge 3-7; not fully specified (bridges)
Consider B9, for which the dissociation constant Kd in assay [1] was found to be 640 ± 10 nM; in assay [2] it was 370 ± 40 nM. Besides, the “stoichiometry N” value in assay [1] is 1.1 ± 0.002; in assay [2], 1.1 ± 0.02.

B10: T-cp4n2m3 (peptide)
chain: {5‑TAMRA-Ahx}-RE[Aha]GDG[Aha]E
modifications: triazole 3-7 via m3; reading uncertain
Regarding B10, the dissociation constant (Kd) in assay [4] came to 180 ± 7 nM.

(Values after PMC5358875 (Journal of the American Chemical Society, 2017).)
